Measured values from US6495376B1, “Methods and compositions for regulating protein-protein interactions” (Beth Israel Deaconess Medical Center, priority 1999, dated 2002).

What was measured:
peptide substrate = test: PPIase activity assay with peptide substrate; format: biochemical; details: relative to wild-type protein defined as 100%
WFYSPFLE = test: Fluorescence anisotropy binding to fluorescein-labeled nonphosphorylated control peptide; details: nonphosphorylated peptide
WFYpSPFLE (Pintide) = test: Fluorescence anisotropy (polarization) binding to fluorescein-labeled phosphorylated Pintide analogue
Text: To determine the affinity of Pin1, and its WW or PPIase domain for phosphopeptides, peptides were labeled with fluorescein and their interactions with Pin1 measured using quantitative fluorescence anisotrophy. To prevent nonspecific labeling, a Pintide analogue (WFYpSPFLE) SEQ ID NO: 9 was used, which binds Pin1 with a high affinity based on the peptide library screen as described by (Lu, K. P. et al., U.S. Ser. No. 60/058,164 (1997), the teachings of which are incorporated herein in their entirety.
Pintide and its nonphosphorylated counterpart were synthesized and incubated with GST-Pin1 or the GST-WW-domain of Pin1 in a binding buffer, using established procedures (Shen, M. et al., Genes & Dev 12:706 (1998)). After a 1 hr incubation, mitotic HeLa cell extracts were added and subjected to GST pull down experiments, followed by immunoblotting analysis using the MPM-2 antibody. To obtain semi-quantitative data, films of immunoblots were scanned at the region of 55 kDa, the major Pin1-binding protein, and data analyzed using ImageQuan (ScanJet II CX). The peptide binding constants were measured using a fluorescence polarization assay (Jiskoot, W. et al., Anal Biochem 196:421 (1991)). Peptides were fluorescein labeled at the N-terminus using the Fluorescein Amine Labeling Kit (Pan Vera Corp.) and purified by TLC according to the manufacturer's […]. To prevent nonspecific labeling, a Pintide analogue (WFYpSPFLE) SEQ ID NO: 8 and the nonphosphorylated control were used. Various concentrations of Pin1 and its mutant proteins were incubated with 0.1 μM of the labeled peptides in a binding buffer containing 50 mM HEPES, pH 7.4, 100 mM NaCl, 2% glycerol. Fluorescence polarization values were obtained using a Pan Vera Beacon 2000 system, as described by the manufacturer.

phosphorylated tau = test: GST-Pin1 pulldown of tau; format: binding; details: tau phosphorylated by Cdc2 in vitro
phosphorylated tau, sequence (P10636 45-216 isoform P10636-2 limits assumed): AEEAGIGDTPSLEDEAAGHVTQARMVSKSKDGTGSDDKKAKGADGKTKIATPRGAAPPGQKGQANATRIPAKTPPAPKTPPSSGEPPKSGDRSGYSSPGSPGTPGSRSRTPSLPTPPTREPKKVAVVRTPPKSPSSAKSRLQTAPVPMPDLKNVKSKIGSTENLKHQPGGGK
Text: Pin1 binds and regulates the function of a defined subset of mitotic phosphoproteins by interacting with conserved phosphorylated Ser/Thr-Pro motifs that are also recognized by MPM-2, a mitosis-specific, phosphorylation-dependent monoclonal antibody (mAb) (Yaffe, M. B. et al., Science 278:1957-1960 (1997); Shen, M. et al., Genes Dev. 12:706-720 (1 998)). Tau is an MPM-2 antigen phosphorylated on multiple Ser/Thr-Pro motifs during mitosis (Illenberger, S. et al., Mol Biol Cell 9:1495-1512 (1998)). Experiments were undertaken to determine whether Pin1 binds tau. Tau isoform was either synthesized by in vitro transcription and translation in the presence of ^35S-Met or produced in bacteria as an N-terminal His-tagged protein, followed by purification using NTA-Ni columns (Yaffe, M. B. et al., Science 278:1957-1960 (1997); Shen, M. et al., Genes Dev. 12:706-720 (1998)). To generate interphase- and mitosis-specific phosphorylated form of tau, tau was incubated with Xenopus interphase and mitotic extracts, respectively (Shen, M. et al., Genes Dev. 12:706-720 (1998)). […]
To determine whether Pin1 interacts with pT231-tau, GST-Pin1 beads were used to isolate tau from AD brain extracts or PHFs and T231 phosphorylation detected using CP9. […]

[1] = tested on: MPM-2 antigens (mitotic phosphoproteins) of mitotic HeLa cell extracts; test: GST pulldown from mitotic HeLa cell extracts, MPM-2 immunoblotting (phosphoprotein-binding activity)
Protocol: GST-fusion proteins containing the WW-domain, PPIase-domain or the entire Pin 1 protein were prepared and incubated with interphase (G1/S arrested; Control) or dividing (M phase) HeLa cell extracts using well-known procedures (Lu, K. P., et al., Nature 380:544 (1996); (Shen, M., et al., Genes & Devl. 12:706 (1998)). Briefly, HeLa cells were arrested at the G1/S boundary or mitosis by incubation with thymidine and aphidicolin or nocodazole for 16 h, respectively. The cells were lysed and supernatants incubated with 10 μl of agarose beads containing GST-Pin1; GST-WW-domain of Pin1; GST-PPIase domain of Pin1; or control GST for 2 h at 4° C. […]
Pintide and its nonphosphorylated counterpart were synthesized and incubated with GST-Pin1 or the GST-WW-domain of Pin1 in a binding buffer, using established procedures (Shen, M. et al., Genes & Dev 12:706 (1998)). […] To obtain semi-quantitative data, films of immunoblots were scanned at the region of 55 kDa, the major Pin1-binding protein, and data analyzed using ImageQuan (ScanJet II CX). The peptide binding constants were measured using a fluorescence polarization assay (Jiskoot, W. et al., Anal Biochem 196:421 (1991)). […] Fluorescence polarization values were obtained using a Pan Vera Beacon 2000 system, as described by the manufacturer. […]

B1: PPlase Domain: C-terminal PPIase domain (amino acids 47-163) of Pin1 (protein)
chain: NGQGEPARVRCSHLLVKHSQSRRPSSWRQEKITRTKEEALELINGYIQKIKSGEEDFESLASQFSDCSSAKARGDLGAFSRGQMQKPFEDASFALRTGEMSGPVFTDSGIHIILRTE
**Q.** How did the “PPlase Activity (%)” value (peptide substrate) turn out when B1 was run?
**A.** Its value is 90%.

**Q.** What about the “WFYSPFLE Kd” value (WFYSPFLE) of the same molecule?
**A.** Its value is “Not binding”.

**Q.** What about the “WFYSPFLE Kd” value (WFYSPFLE; listed as PPIase domain) of the same molecule?
**A.** The value was “No binding was detected”.

**Q.** And the “fold lower affinity for the phosphopeptide than the WW-domain” value (WFYpSPFLE (Pintide))?
**A.** The value was “about 10 fold”.

**Q.** And the “binding to Pintide (in words)” value (WFYpSPFLE (Pintide); fluorescence anisotropy)?
**A.** Its value is “No binding was detected”.

**Q.** What about the Kd (WFYpSPFLE (Pintide); low affinity binding site, read-out: WFYpSPFLE Kd(μM) Low affinity) of the same molecule?
**A.** Its Kd is 15 µM.

**Q.** And the “binding to Cdc2 phosphorylated tau” value (phosphorylated tau)?
**A.** The value was “not”.

**Q.** And the Phosphoprotein binding activity ([1]; GST-fusion proteins with mitotic extracts, MPM2 antibody)?
**A.** The Phosphoprotein binding activity was “−”.

**Q.** And the “binding to mitotic phosphoproteins / MPM-2 antigens (in words)” value ([1]; mitotic HeLa cell extracts)?
**A.** The value was “no specific binding”.
